Reference: the DeepSol protein solubility set

Experiment: soluble on expression in E. coli; label from the status in PepcDB or PDB records

Sequence	soluble on expression in E. coli
MAHHHHHHMELLTSVFQRHPPALRLHRELTIALADGDSARAADLASVLATTVQRVVAAEADSSDAATPPEGHANTGHFSQRDIPVAGLEDVEEAVEKTRQTLLREATVRVSSGVARDTGGSAISSEPAAAERSLPFWRDPERLCVTILESMFETEVLGGESQDTLTAAGNRAAEHEAEQVRILDAYLDKEGARWNAQKAAIAKIVLDVTRSLGLTPEDLQAFEGISASAGAGAAAAAGERKLNVLRHSNLVIRGEMPSAPLSSTASECVAEGVETELRALEERMSSLGQPLTPWEVRMARYELQMSKSKMRYVVGVHKELQLALDHSAALRASLREKSTAEVTFTTGTEVFMAEVIRALNEGADAYSANVTAEGAQLTVSNVKAREAVESPVLPFTFMLKGSLWFTTAPSRPPSSSSD	soluble
MQKVRLIVSGRVQGVGFRYATHTLALDIGDIYGRVWNNNDGTVEILAQSKDSDKIATFIQEVRKGPSKWAKVTYVDVTMANFEDFQDFQIGK	not soluble
MIARRNPIEQLPAIAQDPDKFGVLLSAAEFRTHLVESIRQARKRIYLVALYLENDDAGREILTELYAAKQRNPGLEIHICVDWHRAQRGLIGAAESEGNAAMYRDFAQQHEHCIPVYGIPVRGREVFGVLHLKGFIIDDQVIYSGASLNNVYLQFHGRYRFDRYHTLENAELADSMVHFIQQEMLAHPAVNNLACGSKPTTKEIKSDIRQFRASLAQANYQFAKQKVNEGQVAVTPLVGLGRRRNRLNQSIIQLLASAKDEVFICTPYFNFPPSIAKEVKKALRRGVKVHIVIGDKTANDFYIAPEEPFKTIGGLPYLYELNLRRFAKANEAHIASRKLSIHLWKHENHSFHLKGIWVDKRYMLITGNNLNPRAWKLDLENAILIRDDYHHLTTKFEAEIDNILQHTQLICTYKQIEKPEHYPEKVQRLVRRIMRLKADRVLKQILLEHHHHHH	soluble
MDMPKPPFVIYKGKVEEEFARLHKDGKSLLKAESKFVQFLGLQELTDRACDHVELANPTKNTIIFNIRTPTSPCFFVKPHVGMIDPGGKATLYFTFKGRCHRVPSDYCWIYSIYQLVVDEKTTAFIKEDEFSSQNLRSAWIKHGRKQVNNILHLASSFKAGKPKFECRDGHRKFLERKIYLNDLGDVENSGKSKTENTTDITPANMKKGKLNKAASSDTMDDLPKTAD	not soluble
MSLQRESLDILKLSQAIKKCDAILIGAGAGLSSAAGLSYSGNRFKKYFNDFITKYHLQDMYSAGFYPYPSLEKYWAYWSRHIYYNRYLEAPKDTYKKLLNLLINKDYFVITTNVDHQFQIAGFIKEKLFYTQGDYGLWQCSKPCHQKTYDNYETVVTMIKQQHDLKIPSSLIPYCPICNAPMTMNLRCDKTFVQDSGWYHAQERYYHFLNKYHYSKIVYLELGVGYNTPGIIKYPFWQLTIENPKAIYACINQDIIDLPSELKKQTIMINDNIHNVLSSLEKLLEGHHHHHH	soluble
MVCFASLFEEVSMHTCPLCHNQHTRHYFEDKHREYLQCEQCYLVFVNPDQRLDAETEKAHYDLHENNPEDIGYRRFLSRIADPITERISPQSNGIDFGCGPGPTLSLMLEEAGHNMALYDIYYHPDTAVLEKQYDFMTATEVIEHLYHPDVVWKQWLNLVKPGGWIGLMTKMVIDVEAFKSWHYKNDPTHVVFFSRDTFQFLAERDKLELEFIGNDVILLRKTQLEHHHHHH	soluble
MGSDKIHHHHHHACSISYKFNGSSIDYTKVKTISFENFPNRSAGFVWGPMENMFNTALQDIYMQQTRLKQVKRSGDLQLSGEITNYEAFNKGIGSDGYSSMVELRMTVRVNFVNSSNPTENMNGQQFSASREYNSNQQLSAVQDELVNQMIKEIVEQIFNATVANW	not soluble
MKVSLAGQTVDVKKILNEIPKRTVTAALLEGGEIVAVEEADDEHAERKLVRRHDVEGKVVFVTARPCLYCARELAEAGVAGVVYLGRGRGLGPYYLARSGVEVVEVHPDEPLGYDPVDRLDVLLTFGGNPYLTEEDVAARVYCLLTGRGFDADIAPAPENLSGRVEIMVTRGDPDEAVELLKEELPVFRIRRFLISGEFDRDELRERILEDIEPRILDPFAVRARIARAGAFSSSREAEVFIGDVLTSVGREVNLNDPRTVVTVDVLGPRVSVGVEKR	soluble
PADFNGTWEMLSNDNFEDVMKALDIDFATRKIAVHLKQTKVIVQNGDKFETKTLSTFRNYEVNFVIGEEFDEQTKGLDNRTVKTLVKWDGDKLVCVQKGEKENRGWKQWIEGDLLHLEIHCQDKVCHQVFKKKN	soluble
